According to EP4086281A1 (China Immunotech (Beijing) Biotechnology Co., Ltd, dated 2022):

Target: T1, CD19 expressed by Raji cells (human lymphoma cell line) (human, UniProt P15391 20-556)
T1 construct: whole, on cells; On intact Raji cells in flow cytometry and co-culture; In the western blot it is the denatured protein of a Raji lysate (band of 95kD); also called CD19 protein in the Raji cells
T1 sequence (looked up): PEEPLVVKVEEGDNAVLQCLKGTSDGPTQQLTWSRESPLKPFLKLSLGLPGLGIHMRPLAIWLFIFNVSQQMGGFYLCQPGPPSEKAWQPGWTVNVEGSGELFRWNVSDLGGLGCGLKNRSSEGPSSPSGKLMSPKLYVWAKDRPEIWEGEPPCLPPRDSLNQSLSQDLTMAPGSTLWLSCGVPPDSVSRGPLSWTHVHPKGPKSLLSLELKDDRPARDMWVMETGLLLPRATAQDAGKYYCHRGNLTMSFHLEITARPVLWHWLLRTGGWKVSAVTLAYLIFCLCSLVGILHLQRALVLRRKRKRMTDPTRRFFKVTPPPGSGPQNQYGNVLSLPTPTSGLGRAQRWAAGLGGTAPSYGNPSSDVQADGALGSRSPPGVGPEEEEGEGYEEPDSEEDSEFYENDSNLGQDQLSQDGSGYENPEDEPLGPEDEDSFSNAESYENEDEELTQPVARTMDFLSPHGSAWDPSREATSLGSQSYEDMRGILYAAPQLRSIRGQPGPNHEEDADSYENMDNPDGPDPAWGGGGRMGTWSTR
Assay: flow cytometry on Raji cells, antibody titrated from 0 to 375 nM, curve fitted with GraphPad

- Kd: 1.53 nM
B1: monoclonal antibody 334 targeting CD19 (hybridoma CGMCC No. 17095) (antibody, V domains shown)
VH: QVQLQQSGAELVRPGASVKLSCKALGFIFTDYEIHWVKQTPVHGLEWIGAFHPGSGGSAYNQKFKGKATLTADKSSSTAYMELSSLTFEDSAVYHCTRQLGPDWGQGTLVTVS
VL: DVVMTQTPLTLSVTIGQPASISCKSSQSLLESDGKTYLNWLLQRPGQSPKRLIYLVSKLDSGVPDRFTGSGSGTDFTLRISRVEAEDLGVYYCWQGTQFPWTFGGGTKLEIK
notes: it is a hybridoma antibody detected with anti-mouse secondary antibodies
